Article PMC12181280 (NPJ Biofilms and Microbiomes, 2025)

B1: N-terminally His-tagged WT Bcd (B. subtilis Val/Leu/Ile dehydrogenase) (enzyme, UniProt P54531 1-364, looked up)
chain: MELFKYMEKYDYEQLVFCQDEQSGLKAIIAIHDTTLGPALGGTRMWTYENEEAAIEDALRLARGMTYKNAAAGLNLGGGKTVIIGDPRKDKNEEMFRAFGRYIQGLNGRYITAEDVGTTVEDMDIIHDETDYVTGISPAFGSSGNPSPVTAYGVYRGMKAAAKAAFGTDSLEGKTIAVQGVGNVAYNLCRHLHEEGANLIVTDINKQSVQRAVEDFGARAVDPDDIYSQDCDIYAPCALGATINDDTIKQLKAKVIAGAANNQLKETRHGDQIHEMGIVYAPDYVINAGGVINVADELYGYNAERALKKVEGIYGNIERVLEISQRDGIPAYLAADRLAEERIERMRRSRSQFLQNGHSVLSRR
B2: Bcd, native complex in B. subtilis NCIB3610 cell lysate (enzyme, B. subtilis (endogenous in NCIB3610), UniProt P54531 1-364, looked up)
chain: MELFKYMEKYDYEQLVFCQDEQSGLKAIIAIHDTTLGPALGGTRMWTYENEEAAIEDALRLARGMTYKNAAAGLNLGGGKTVIIGDPRKDKNEEMFRAFGRYIQGLNGRYITAEDVGTTVEDMDIIHDETDYVTGISPAFGSSGNPSPVTAYGVYRGMKAAAKAAFGTDSLEGKTIAVQGVGNVAYNLCRHLHEEGANLIVTDINKQSVQRAVEDFGARAVDPDDIYSQDCDIYAPCALGATINDDTIKQLKAKVIAGAANNQLKETRHGDQIHEMGIVYAPDYVINAGGVINVADELYGYNAERALKKVEGIYGNIERVLEISQRDGIPAYLAADRLAEERIERMRRSRSQFLQNGHSVLSRR
B3: N-terminally His-tagged Bcd(K80A) (enzyme, B. subtilis, UniProt P54531 1-364, looked up)
chain: MELFKYMEKYDYEQLVFCQDEQSGLKAIIAIHDTTLGPALGGTRMWTYENEEAAIEDALRLARGMTYKNAAAGLNLGGGATVIIGDPRKDKNEEMFRAFGRYIQGLNGRYITAEDVGTTVEDMDIIHDETDYVTGISPAFGSSGNPSPVTAYGVYRGMKAAAKAAFGTDSLEGKTIAVQGVGNVAYNLCRHLHEEGANLIVTDINKQSVQRAVEDFGARAVDPDDIYSQDCDIYAPCALGATINDDTIKQLKAKVIAGAANNQLKETRHGDQIHEMGIVYAPDYVINAGGVINVADELYGYNAERALKKVEGIYGNIERVLEISQRDGIPAYLAADRLAEERIERMRRSRSQFLQNGHSVLSRR

Assays:
[1] = target: S. aureus GudB (glutamate dehydrogenase) (S. aureus (endogenous in USA300 JE2)); assay: native gel or EMSA
[2] = target: the molecule itself; assay: SEC
[3] = target: the molecule itself; assay: native gel or EMSA

Molecule | stoichiometry N [2] | further results
S. aureus GudB (glutamate dehydrogenase) (enzyme) |  | stoichiometry N [1]: 3
B1 | 6 | 
B2 |  | stoichiometry N [3]: 6
B3 | 6 | 
